Source: article PMC8348300

Columns and labels:
human alpha-thrombin [1] = target: T1, human alpha-thrombin (Homo sapiens, UniProt P00734;P00734 328-363;364-622); experiment: SPR; 10 mM KCl; SPR (OpenSPR, immobilized thrombin): PBS, 0.005% Tween 20, 10 mM KCl, pH 7.4; TBA 1-16 uM (1-8 uM per Results), annealed 95 C 5 min then cooled to room temperat
human alpha-thrombin [2] = target: T1, human alpha-thrombin; experiment: SPR; 10 mM KCl; text of 3.2 gives 99 nM; SPR (OpenSPR, immobilized thrombin): PBS, 0.005% Tween 20, 10 mM KCl, pH 7.4; TBA 1-16 uM (1-8 uM per Results), annealed 95 C 5 min then cooled to room temperat
human alpha-thrombin [3] = target: T1, human alpha-thrombin; experiment: SPR; 10 mM KCl; text of 3.2 gives 99.8 nM; SPR (OpenSPR, immobilized thrombin): PBS, 0.005% Tween 20, 10 mM KCl, pH 7.4; TBA 1-16 uM (1-8 uM per Results), annealed 95 C 5 min then cooled to room temperat
human alpha-thrombin [4] = target: T1, human alpha-thrombin; experiment: SPR; 10 mM KCl; text of 3.2 gives 97.5 nM; SPR (OpenSPR, immobilized thrombin): PBS, 0.005% Tween 20, 10 mM KCl, pH 7.4; TBA 1-16 uM (1-8 uM per Results), annealed 95 C 5 min then cooled to room temperat

Binder | Kd (human alpha-thrombin [1]) [nM] | also measured
GGTTGGTGTGGTTGG (structured_DNA, 5' Trebler dendrimer (three arms with terminal hydroxyls)) [5TG] | 102 | –
GGTTGGTGTGGTTGG (structured_DNA, T4: C5 NHS-carboxy-dT) [4NHT] | – | Kd (human alpha-thrombin [2]): 102 nM
GGTTGGTGTGGTTGG (structured_DNA) [TBA (native)] | 99.8 | –
GGTTGGTGTGGTTGG (structured_DNA, T4 and T13: C5 NHS-carboxy-dT) [413NHT] | – | Kd (human alpha-thrombin [3]): 102 nM
GGTTGGTGTGGTTGG (structured_DNA, T13: C5 NHS-carboxy-dT) [13NHT] | – | Kd (human alpha-thrombin [4]): 99.7 nM
GGTTGGTGTGGTTGG (structured_DNA, 5' Long Trebler dendrimer (three arms with terminal hydroxyls)) [5LTG] | 99.6 | –
